# Experimental data from paper PMC7367873, “Dissecting the sequence determinants for dephosphorylation by the catalytic subunits of phosphatases PP1 and PP2A” (Nature Communications, 2020).
# Biological target: T1, PP1c (Homo sapiens, UniProt P62136)
# T1 construct: His tag with TEV site (N, cleaved yes); intein (pTXB1) (C, cleaved yes); made in house; host or cells: E. coli BL21Star(DE3)pRARE
# Test: Phosphopeptide library dephosphorylation followed by mass spectrometry (PLDMS), PP1c
# Format: biochemical
# Conditions: all libraries, 25 nM PP1c, 100 µM library, 2 min, 25 °C, pH 7.5; library distribution 60% Ser to 40% Thr
# Source text: In order to determine phosphatase specificity on the phosphopeptide level, we developed an in vitro phosphopeptide library dephosphorylation followed by mass spectrometry approach (PLDMS, Fig. 1a; see the methods for details). In this approach, phosphopeptide libraries would be treated with PP1, PP2A, or left untreated, purified, and analyzed by LC-MS/MS measurements. In the first step, design, synthesis, and validation of phosphopeptide libraries were required. The phosphopeptide libraries were designed to yield an even distribution of amino acids in the different randomized positions and to give high coupling efficiency during synthesis, thus reducing the number of by-products. […]
# The individual libraries were incubated with recombinant PP1c or PP2Ac (Supplementary Fig. 1a) and the reaction was stopped by shifting the pH from 7.5 to 3 when 30–50% of the library was dephosphorylated, depending on phosphatase activity (see the methods for details, Supplementary Fig. 1b). Peptides were then separated from the recombinant protein by size-exclusion chromatography (SEC) (Supplementary Fig. 1c) and analyzed by LC-MS/MS (Fig. 1a). […]
# For LC-MS analysis, the treated/ctrl peptide libraries were purified by SEC. […] A 0.1 M ammonium acetate buffer (pH 5) was used throughout the column equilibration and purification and the elution profile was recorded at 280 nm. […]
# T1 sequence (P62136 whole entry): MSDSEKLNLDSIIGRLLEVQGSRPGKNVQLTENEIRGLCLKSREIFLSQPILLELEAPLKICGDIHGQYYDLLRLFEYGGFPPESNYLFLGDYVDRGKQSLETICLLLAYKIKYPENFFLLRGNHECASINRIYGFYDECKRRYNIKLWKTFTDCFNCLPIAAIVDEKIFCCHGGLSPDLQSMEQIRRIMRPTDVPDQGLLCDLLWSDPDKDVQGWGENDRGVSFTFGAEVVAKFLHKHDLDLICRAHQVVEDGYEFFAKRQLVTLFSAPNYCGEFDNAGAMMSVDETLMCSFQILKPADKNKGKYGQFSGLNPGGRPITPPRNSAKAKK
substance,measurement,value
PP1c: recombinant catalytic subunit of PP1,pThr share of all sites dephosphorylated by PP1c,73%
